From article PMC11744834, “Allelic variation in an expansin, MdEXP-A1, contributes to flesh firmness at harvest in apples” come the findings set out here.

In the data set the target is T1, MdNAC1 (Malus domestica? (apple), UniProt D9ZJ87 1-280).
T1 sequence: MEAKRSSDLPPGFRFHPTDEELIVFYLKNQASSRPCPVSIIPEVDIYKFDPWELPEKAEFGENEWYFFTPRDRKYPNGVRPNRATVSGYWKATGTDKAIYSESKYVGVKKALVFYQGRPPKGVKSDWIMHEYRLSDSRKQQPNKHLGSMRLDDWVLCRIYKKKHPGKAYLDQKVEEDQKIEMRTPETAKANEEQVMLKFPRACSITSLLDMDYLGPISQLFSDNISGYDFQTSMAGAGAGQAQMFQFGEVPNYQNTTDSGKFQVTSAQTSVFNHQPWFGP
The data set can be described thus: EMSA; Chemiluminescent EMSA Kit (GS009, Beyotime); cold competitor 50x; buffer, salt, pH and temperature not stated. Particulars: protein: recombinant; tags: GST (pGEX-6p-1); chain copies: 2; label: biotin; blunt. A general note: A gel shift assay detects complexes by their altered migration in electrophoresis.

B1: MdEXP-A1-P2 binding probe (dsDNA)
DNA 1: TAACAACAAAATGTGCCTAACGTATACATGCAAAATAATTTACCT
DNA 2: AGGTAAATTATTTTGCATGTATACGTTAGGCACATTTTGTTGTTA
Consider B1, for which the binding result is listed as “binds”.

B2: MdEXP-A1-P1 binding probe (dsDNA)
DNA 1: TACATGCAAAATAATTTACCTACGTAATAAATAATAAATATTGTT
DNA 2: AACAATATTTATTATTTATTACGTAGGTAAATTATTTTGCATGTA
B2: the binding result was “binds”.
